The source of these data is patent EP2028187A1 (BOARD OF REGENTS, THE UNIVERSITY OF TEXAS SYSTEM, dated 2009).

Square brackets hold non-standard residues; d marks the D form. Ends that are not written are not given here. pY = N[C@@H](Cc1ccc(OP(=O)(O)O)cc1)C(=O)O

Experiment [1] has as its target GST-β5cyto (GST fusion protein of the integrin β5 cytoplasmic domain) (UniProt P18084). Nature of the experiment: phage colonies recovered from β5-GST-coated wells divided by those from GST wells.
Experiment [2] shares this target. Briefly: phage colonies recovered from β5-GST-coated wells divided by those from BSA wells.
The target of experiment [3] is T1, GST-β3cyto (GST fusion protein of the integrin β3 cytoplasmic domain) (UniProt O54890).
T1 sequence: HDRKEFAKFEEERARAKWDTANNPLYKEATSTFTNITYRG
Briefly: phage colonies recovered from β3-GST-coated wells divided by those from BSA wells.

For experiment [4], the target named is T1, GST-β3cyto (GST fusion protein of the integrin β3 cytoplasmic domain). Nature of the experiment: phage colonies recovered from β3-GST-coated wells divided by those from GST wells.
Experiment [5] concerns the target Aminopeptidase A (APA, EC 3.4.11.7) on cells (UniProt Q07075). Briefly: phage binding to SK-RC-49/APA cells in suspension, phage rescued and counted (not shown).
Experiment [6] addresses T1, GST-β3cyto (GST fusion protein of the integrin β3 cytoplasmic domain). Briefly: colonies of Fyn-phosphorylated phage divided by those of unphosphorylated phage bound to the β3 cytoplasmic domain.
For experiment [7] the target is unchanged. Nature of the experiment: β3 colonies divided by BSA colonies after panning.
For experiment [8] the target is unchanged. Nature of the experiment: β3 colonies divided by GST colonies after panning.
For experiment [9], the target named is GST-β5cyto (GST fusion protein of the integrin β5 cytoplasmic domain) (UniProt P18084). Nature of the experiment: β5 colonies divided by BSA colonies after panning.
For experiment [10] the target is unchanged. Nature of the experiment: colonies of Fyn-phosphorylated phage divided by those of unphosphorylated phage bound to the β5 cytoplasmic domain.
Experiment [11] shares this target. Briefly: β5 colonies divided by GST colonies after panning.
In experiment [12] the target is Aminopeptidase A (APA, EC 3.4.11.7) on cells (UniProt Q07075 1-957, limits assumed). Briefly: cell-based or functional assay.
The target of experiment [13] is GST-β5cyto (GST fusion protein of the integrin β5 cytoplasmic domain) (UniProt P18084). Briefly: competition ELISA on GST-β5-coated plates, in the absence of calcium. (In general: In an ELISA, binding on a coated surface is turned into a signal by an enzyme label.)
Experiment [14] has the same target. Briefly: competition ELISA on GST-β5-coated plates, in the presence of calcium.

Sequence of GST-β5cyto (GST fusion protein of the integrin β5 cytoplasmic domain) (P18084 other isoform, or with tags, fused parts or gaps): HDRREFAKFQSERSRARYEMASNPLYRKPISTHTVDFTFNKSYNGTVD
Sequence of Aminopeptidase A (APA, EC 3.4.11.7) on cells (UniProt Q07075) (Q07075 whole entry, the tested form may be a part): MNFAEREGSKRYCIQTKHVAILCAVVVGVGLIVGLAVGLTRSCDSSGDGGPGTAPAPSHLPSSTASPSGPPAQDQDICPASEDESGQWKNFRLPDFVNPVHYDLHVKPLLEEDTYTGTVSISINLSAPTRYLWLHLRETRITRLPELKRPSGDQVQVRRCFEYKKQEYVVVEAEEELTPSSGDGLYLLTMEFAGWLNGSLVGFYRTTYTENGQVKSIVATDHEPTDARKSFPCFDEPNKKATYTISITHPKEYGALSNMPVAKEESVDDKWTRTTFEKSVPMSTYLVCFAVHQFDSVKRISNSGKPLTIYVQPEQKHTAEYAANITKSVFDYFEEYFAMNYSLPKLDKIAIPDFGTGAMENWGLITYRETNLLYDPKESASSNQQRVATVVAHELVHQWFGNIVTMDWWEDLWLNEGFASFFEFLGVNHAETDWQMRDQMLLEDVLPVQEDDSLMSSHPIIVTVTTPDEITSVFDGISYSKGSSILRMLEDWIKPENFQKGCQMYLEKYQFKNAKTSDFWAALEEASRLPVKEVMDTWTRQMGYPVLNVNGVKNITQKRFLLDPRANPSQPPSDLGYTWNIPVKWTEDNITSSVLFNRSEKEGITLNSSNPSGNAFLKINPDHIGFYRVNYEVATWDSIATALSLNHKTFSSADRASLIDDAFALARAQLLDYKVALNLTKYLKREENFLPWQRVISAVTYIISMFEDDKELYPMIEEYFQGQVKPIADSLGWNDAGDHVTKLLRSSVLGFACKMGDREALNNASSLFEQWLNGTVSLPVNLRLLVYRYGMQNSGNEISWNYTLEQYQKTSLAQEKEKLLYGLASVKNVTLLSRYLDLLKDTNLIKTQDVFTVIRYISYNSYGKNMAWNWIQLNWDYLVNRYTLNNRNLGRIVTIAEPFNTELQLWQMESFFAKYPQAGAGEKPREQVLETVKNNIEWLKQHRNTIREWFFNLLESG
Sequence of Aminopeptidase A (APA, EC 3.4.11.7) on cells (UniProt Q07075 1-957, limits assumed) (Q07075 whole entry, the tested form may be a part): as above

B1: phage displaying … (SEQ ID NO:113), selected on β5 (peptide)
peptide: SDWYYPWSW
Consider B1, for which the β5/GST Ratio in experiment [1] was found to be 2.4. Also, the β5/BSA Ratio in experiment [2] came to 304.

B2: phage displaying … (SEQ ID NO:109) (peptide)
peptide: CWDQNYLDDC
Regarding B2, the β5/GST Ratio in experiment [1] worked out at 1.5. In addition, the β5/BSA Ratio in experiment [2] came out at 100.

B3: phage displaying … (SEQ ID NO:95) (peptide)
peptide: YDWWYPWSW
Regarding B3, in experiment [3], the β3/BSA Ratio was determined as 163. In addition, the β3/GST Ratio in [4] was 5.6.

B4: phage displaying … (SEQ ID NO:127) (peptide)
peptide: CPKVCPRECESNC
For the molecule B4, the fold enrichment relative to SK-RC-49 parental cells in [5] worked out at 6 fold.

B5: Fyn-phosphorylated phage displaying … (SEQ ID NO:116) (peptide)
peptide: RAIL[pY]RLAN
modifications: also: tyrosine phosphorylated in vitro with Fyn kinase
For B5, the Phos/Unphos in [6] came to 2.8. In addition, the β3 or β5/BSA in [7] turned out to be 20. In experiment [8], the β3 or β5/GST is 1.3.

B6: phage displaying … (SEQ ID NO:112) (peptide)
peptide: VVISYSMPD
Consider B6, for which the β5/GST Ratio in [1] turned out to be 3.8. Also, the β5/BSA Ratio in [2] is 28.

B7: phage displaying … (SEQ ID NO:94) (peptide)
peptide: CARLEVLLPC
As to B7, in [3], the β3/BSA Ratio was 18.7. In addition, the β3/GST Ratio in [4] turned out to be 2.8.

B8: phage displaying … (SEQ ID NO:100), selected on β3 (peptide)
peptide: SDWYYPWSW
Take B8: the β3/BSA Ratio in experiment [3] was 157. Further, in experiment [4], the β3/GST Ratio amounted to 2.1.

B9: phage displaying … (SEQ ID NO:98) (peptide)
peptide: YEWWYWSWA
For B9, the β3/BSA Ratio in experiment [3] was 28.1. In experiment [4], the β3/GST Ratio came to 2.2.

B10: Fyn-phosphorylated phage displaying … (SEQ ID NO:121) (peptide)
peptide: TLRK[pY]FHSS
modifications: also: tyrosine phosphorylated in vitro with Fyn kinase
In [9], B10 returned a β3 or β5/BSA of 7.3. The molecule further returned a Phos/Unphos in experiment [10] of 1.8. In addition, the β3 or β5/GST in experiment [11] was 5.6.

B11: phage displaying … (SEQ ID NO:99) (peptide)
peptide: KVSWYLDNG
For the molecule B11, the β3/BSA Ratio in experiment [3] was 20. Further, the β3/GST Ratio in experiment [4] stood at 2.1.

B12: phage displaying … (SEQ ID NO:105) (peptide)
peptide: CYIWPDSGLC
In the case of B12, the β5/GST Ratio in experiment [1] worked out at 5.2. Moreover, the β5/BSA Ratio in experiment [2] is 193.

B13: phage displaying … (SEQ ID NO:93) (peptide)
peptide: CEQRQTQEGC
As for B13, the β3/BSA Ratio in experiment [3] is 14. In addition, the β3/GST Ratio in experiment [4] came to 4.3.

B14: phage displaying CNLSSEQC (SEQ ID NO:103) (peptide)
peptide: CNLSSEQC
Turning to B14, the β3/BSA Ratio in experiment [3] turned out to be 62. In addition, the β3/GST Ratio in [4] is 2.7.

B15: phage displaying … (SEQ ID NO:104) (peptide)
peptide: CLRQSYSYNC
B15: the β3/BSA Ratio in experiment [3] was 3.2. In addition, the β3/GST Ratio in experiment [4] turned out to be 2.4.

B16: CPRECESIC (SEQ ID NO:123) soluble peptide (peptide)
peptide: CPRECESIC
modifications: disulfide (positions not given here); also: mixture of disulfide isomers and dimers
As for B16, the “APA enzyme activity on SK-RC-49/APA cells (α-glutamyl-p-nitroanilide, colorimetric), IC50” value in experiment [12] was 800 µM.

B17: phage displaying … (SEQ ID NO:97) (peptide)
peptide: SDNRYIGSW
On to B17, for which the β3/BSA Ratio in [3] amounted to 32. The β3/GST Ratio in experiment [4] was 3.3.

B18: phage displaying … (SEQ ID NO:110) (peptide)
peptide: DEEGYYMMR
As to B18, the β5/GST Ratio in experiment [1] is 11.5. Besides, in experiment [2], the β5/BSA Ratio was 29.

B19: phage displaying … (SEQ ID NO:125) (peptide)
peptide: CYNLCIRECESICGADGACWTWCADGCSRSC
With B19, the fold enrichment relative to SK-RC-49 parental cells in [5] was 6 fold.

B20: phage displaying … (SEQ ID NO:96) (peptide)
peptide: GLDTYRGSP
In the case of B20, the β3/BSA Ratio in experiment [3] came to 48. In addition, the β3/GST Ratio in [4] is 4.1.

B21: phage displaying … (SEQ ID NO:106) (peptide)
peptide: CEPYWDGWFC
As to B21, the β5/GST Ratio in experiment [1] was found to be 3.1. In addition, the β5/BSA Ratio in experiment [2] was 400.

B22: VISY peptide (…, SEQ ID NO:112) (peptide)
peptide: VVISYSMPD
Regarding B22, the % inhibition of Annexin V binding to GST-β5 was found to be 45% in experiment [13] and 67% in experiment [14].

B23: phage displaying CFQNRC (SEQ ID NO:102) (peptide)
peptide: CFQNRC
As to B23, the β3/BSA Ratio in experiment [3] amounted to 16. Also, in experiment [4], the β3/GST Ratio stood at 3.1.

B24: phage displaying … (SEQ ID NO:126) (peptide)
peptide: CLGQCASICVNDC
On to B24, for which the fold enrichment relative to SK-RC-49 parental cells in [5] stood at 6 fold.

B25: phage displaying … (SEQ ID NO:111) (peptide)
peptide: KQFSYRYLL
Take B25: the β5/GST Ratio in experiment [1] was determined as 4.5. For the same molecule, the β5/BSA Ratio in experiment [2] was found to be 8.
